{"source": "patent US20230357447A1", "about": "(JANUX THERAPEUTICS, published 2023)", "key": {"[1]": {"target": "T1, Anti-CD28 scFv (VH-linker 1-VL) (biotinylated (site not stated))", "T1 construct": "biotinylated and captured on neutravidin coated plates in the phage ELISA", "test": "phage ELISA, captured biotinylated scFv; background signal 0.063"}, "[2]": {"target": "T1, Anti-CD28 scFv (VH-linker 1-VL)", "test": "phage ELISA, scFv wells pre-incubated with soluble CD28 (competitor); background signal 0.063"}, "[3]": {"target": "T1, Anti-CD28 scFv (VH-linker 1-VL)", "test": "phage ELISA, scFv wells pre-incubated with soluble CD28 (competitor); background signal 0.061"}, "[4]": {"target": "T1, Anti-CD28 scFv (VH-linker 1-VL)", "test": "phage ELISA, captured biotinylated scFv; background signal 0.068"}, "[5]": {"target": "T1, Anti-CD28 scFv (VH-linker 1-VL)", "test": "phage ELISA, scFv wells pre-incubated with soluble CD28 (competitor); background signal 0.068"}, "[6]": {"target": "T1, Anti-CD28 scFv (VH-linker 1-VL)", "test": "phage ELISA, captured biotinylated scFv; background signal 0.061"}, "[7]": {"target": "T2, Ab-12, anti-PD-L1xCD28 non-masked antibody in Vh format", "T2 construct": "also called PDL1xCD28 non-masked (Vh)", "test": "competition ELISA: peptide titrated against 5 nM Ab-12; binding of Ab-12 to captured biotinylated CD28 antigen is read"}, "[8]": {"target": "T2, Ab-12, anti-PD-L1xCD28 non-masked …", "test": "competition ELISA: peptide titrated against 5 nM Ab-12; binding of Ab-12 to captured biotinylated CD28 antigen is read; table prints 'IC50 nM' but the axis is Log [Peptide, uM]"}, "[9]": {"target": "T2, Ab-12, anti-PD-L1xCD28 non-masked …", "test": "competition ELISA: peptide titrated against 5 nM Ab-12; binding of Ab-12 to captured biotinylated CD28 antigen is read", "remark": "listed apart in the source"}, "[10]": {"target": "T3, anti-CD28 scFv (SEQ ID NO: 9)", "T3 construct": "also called Anti-CD28 scFv (VH-linker 1-VL)", "test": "competition ELISA: peptide titrated against 2 nM anti-CD28 scFv; binding of the scFv to captured biotinylated CD28 antigen is read"}, "[11]": {"target": "T2, Ab-12, anti-PD-L1xCD28 non-masked …", "test": "competition ELISA: peptide titrated against 5 nM Ab-12; binding of Ab-12 to captured biotinylated CD28 antigen is read", "remark": "listed apart in the source"}, "[12]": {"target": "T3, anti-CD28 scFv (SEQ ID NO: 9)", "test": "competition ELISA: peptide titrated against 2 nM anti-CD28 scFv; binding of the scFv to captured biotinylated CD28 antigen is read", "remark": "listed apart in the source"}, "[13]": {"target": "T2, Ab-12, anti-PD-L1xCD28 non-masked …", "test": "competition ELISA: peptide titrated against 5 nM Ab-12; binding of Ab-12 to captured biotinylated CD28 antigen is read", "remark": "listed apart in the source"}, "[14]": {"target": "T2, Ab-12, anti-PD-L1xCD28 non-masked …", "test": "competition ELISA: peptide titrated against 5 nM Ab-12; binding of Ab-12 to captured biotinylated CD28 antigen is read; table prints 'IC50 nM' but the axis is Log [Peptide, uM] and the curve falls between Log 0.5 and Log 2"}, "[15]": {"target": "T3, anti-CD28 scFv (SEQ ID NO: 9)", "test": "competition ELISA: peptide titrated against 2 nM anti-CD28 scFv; binding of the scFv to captured biotinylated CD28 antigen is read", "remark": "listed apart in the source"}, "[16]": {"target": "T3, anti-CD28 scFv (SEQ ID NO: 9)", "test": "competition ELISA: peptide titrated against 2 nM anti-CD28 scFv; binding of the scFv to captured biotinylated CD28 antigen is read", "remark": "listed apart in the source"}, "[17]": {"target": "T3, anti-CD28 scFv (SEQ ID NO: 9)", "test": "competition ELISA: peptide titrated against 2 nM anti-CD28 scFv; binding of the scFv to captured biotinylated CD28 antigen is read", "remark": "listed apart in the source"}}, "note": "Read-outs that look alike come from different tables or passages of the source. Ends that are not written are not given here.", "data": [{"binder": "MDWCPRDLWHECFA", "note": "[Phage-26]", "values": [{"measurement": "Phage binding ELISA CD28 scFv signal", "setting": "[1]", "result": 2.71}, {"measurement": "Phage binding ELISA CD28 scFv signal in presence of CD28", "setting": "[2]", "result": 0.277}]}, {"binder": "MDWCPRDLWAECFN", "note": "[Phage-107]", "values": [{"measurement": "Phage binding ELISA CD28 scFv signal in presence of CD28", "setting": "[3]", "result": 0.207}]}, {"binder": "MDWCPIYLWDECFN", "note": "[Phage-106]", "values": [{"measurement": "Phage binding ELISA CD28 scFv signal in presence of CD28", "setting": "[3]", "result": 0.215}]}, {"binder": "MDWCPRALWAECFN", "note": "[Phage-63]", "values": [{"measurement": "Phage binding ELISA CD28 scFv signal", "setting": "[4]", "result": 2.68}, {"measurement": "Phage binding ELISA CD28 scFv signal in presence of CD28", "setting": "[5]", "result": 0.339}]}, {"binder": "MDWCPRDLWSECFF", "note": "[Phage-28]", "values": [{"measurement": "Phage binding ELISA CD28 scFv signal", "setting": "[4]", "result": 2.57}, {"measurement": "Phage binding ELISA CD28 scFv signal in presence of CD28", "setting": "[5]", "result": 0.218}]}, {"binder": "MDWCPIDMWDQCFN", "note": "[Phage-40]", "values": [{"measurement": "Phage binding ELISA CD28 scFv signal", "setting": "[6]", "result": 2.66}, {"measurement": "Phage binding ELISA CD28 scFv signal in presence of CD28", "setting": "[3]", "result": 0.297}]}, {"binder": "MDWCPRERWVDCFF (cysteine pairing not given here; also: biotinylated, site not given here)", "note": "[Peptide-9]", "values": [{"measurement": "IC50 (read off the curve)", "setting": "[7]", "result": "~2", "unit": "µM"}, {"measurement": "IC50", "setting": "[8]", "result": 1.54, "unit": "nM"}, {"measurement": "IC50", "setting": "[9]", "result": 2240, "unit": "nM"}, {"measurement": "IC50 (read off the curve)", "setting": "[10]", "result": "~2", "unit": "µM"}, {"measurement": "IC50", "setting": "[11]", "result": 1860, "unit": "nM"}, {"measurement": "IC50", "setting": "[12]", "result": 1280, "unit": "nM"}, {"measurement": "IC50", "setting": "[13]", "result": 2630, "unit": "nM"}]}, {"binder": "GYCHYWGDMVMWCG (cysteine pairing not given here; also: biotinylated, site not given here, also called Peptide-12_200 nM)", "note": "[Peptide-12]", "values": [{"measurement": "IC50", "setting": "[14]", "result": 21, "unit": "nM"}]}, {"binder": "MDWCPPYLWNVCFS", "note": "[Phage-50]", "values": [{"measurement": "Phage binding ELISA CD28 scFv signal", "setting": "[1]", "result": 1.64}, {"measurement": "Phage binding ELISA CD28 scFv signal in presence of CD28", "setting": "[2]", "result": 0.1}]}, {"binder": "MDWCPMDLWYQCFN", "note": "[Phage-85]", "values": [{"measurement": "Phage binding ELISA CD28 scFv signal", "setting": "[1]", "result": 2.62}, {"measurement": "Phage binding ELISA CD28 scFv signal in presence of CD28", "setting": "[2]", "result": 0.187}]}, {"binder": "MDWCPRERWVDCFF", "note": "[Peptide-51]", "values": [{"measurement": "IC50 (read off the curve)", "setting": "[15]", "result": "~2", "unit": "µM"}, {"measurement": "IC50", "setting": "[9]", "result": 2450, "unit": "nM"}, {"measurement": "IC50", "setting": "[16]", "result": 1650, "unit": "nM"}, {"measurement": "IC50", "setting": "[11]", "result": 2430, "unit": "nM"}, {"measurement": "IC50", "setting": "[17]", "result": 1370, "unit": "nM"}, {"measurement": "IC50", "setting": "[12]", "result": 1630, "unit": "nM"}, {"measurement": "IC50", "setting": "[13]", "result": 2620, "unit": "nM"}]}, {"binder": "IDWCPRYLWDECYN", "note": "[Phage-48]", "values": [{"measurement": "Phage binding ELISA CD28 scFv signal", "setting": "[6]", "result": 2.24}, {"measurement": "Phage binding ELISA CD28 scFv signal in presence of CD28", "setting": "[3]", "result": 0.153}]}, {"binder": "MNWCPRDMWYQCFN", "note": "[Phage-54]", "values": [{"measurement": "Phage binding ELISA CD28 scFv signal", "setting": "[4]", "result": 1.95}, {"measurement": "Phage binding ELISA CD28 scFv signal in presence of CD28", "setting": "[5]", "result": 0.177}]}]}
